Measured values reported in publication PMC11931385, “Structural and functional analysis of cancer-associated missense variants in the retinoblastoma protein pocket domain” (The Journal of Biological Chemistry, 2025).
No end group written: not given here. TMR = tetramethyl rhodamine dye

Columns and labels:
Experiment in all cases: fluorescence polarisation; 37 °C, after the 25 °C reading ramped over 7 min to 37 °C and 2 min incubation; unlabeled Rb^P against 1.5 nM TMR-E2F1^TD or 7.5 nM TMR-E7^LxCxE; 25 mM Tris pH 8.0, 200 mM NaCl, 1 mM DTT, 0.1% Tween-20; apparent Kd
Details in all cases: both partners purified
[1] = biological target: T1, Rb^P M704V (human, UniProt P06400 380-788, M704V)
T1 construct: also called variant 66
T1 sequence (looked up): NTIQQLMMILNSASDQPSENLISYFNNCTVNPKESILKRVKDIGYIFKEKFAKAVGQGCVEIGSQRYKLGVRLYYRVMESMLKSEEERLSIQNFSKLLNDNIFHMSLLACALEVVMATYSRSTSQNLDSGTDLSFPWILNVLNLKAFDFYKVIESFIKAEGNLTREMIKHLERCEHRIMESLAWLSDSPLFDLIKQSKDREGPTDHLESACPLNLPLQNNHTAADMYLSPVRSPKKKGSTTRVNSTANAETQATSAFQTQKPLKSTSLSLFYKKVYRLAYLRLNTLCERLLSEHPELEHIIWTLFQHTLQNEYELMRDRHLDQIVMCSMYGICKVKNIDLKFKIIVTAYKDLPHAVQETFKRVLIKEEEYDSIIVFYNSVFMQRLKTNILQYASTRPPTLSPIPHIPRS

[2] = biological target: T2, Rb^P T620M (human, UniProt P06400 380-788, T620M)
T2 construct: also called variant 40
T2 sequence (looked up): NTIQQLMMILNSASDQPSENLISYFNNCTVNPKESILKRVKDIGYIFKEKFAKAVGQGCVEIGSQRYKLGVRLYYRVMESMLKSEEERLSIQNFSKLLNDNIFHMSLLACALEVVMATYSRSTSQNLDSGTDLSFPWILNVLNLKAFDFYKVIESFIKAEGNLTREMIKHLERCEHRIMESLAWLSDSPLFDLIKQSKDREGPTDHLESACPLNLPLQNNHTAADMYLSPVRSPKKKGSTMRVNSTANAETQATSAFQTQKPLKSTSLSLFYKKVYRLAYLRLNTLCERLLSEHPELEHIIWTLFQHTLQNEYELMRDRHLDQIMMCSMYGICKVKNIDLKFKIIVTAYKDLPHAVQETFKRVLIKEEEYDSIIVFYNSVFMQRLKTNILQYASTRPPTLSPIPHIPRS

[3] = biological target: T3, Rb^P R556Q (human, UniProt P06400 380-788, R556Q)
T3 construct: also called variant 30
T3 sequence (looked up): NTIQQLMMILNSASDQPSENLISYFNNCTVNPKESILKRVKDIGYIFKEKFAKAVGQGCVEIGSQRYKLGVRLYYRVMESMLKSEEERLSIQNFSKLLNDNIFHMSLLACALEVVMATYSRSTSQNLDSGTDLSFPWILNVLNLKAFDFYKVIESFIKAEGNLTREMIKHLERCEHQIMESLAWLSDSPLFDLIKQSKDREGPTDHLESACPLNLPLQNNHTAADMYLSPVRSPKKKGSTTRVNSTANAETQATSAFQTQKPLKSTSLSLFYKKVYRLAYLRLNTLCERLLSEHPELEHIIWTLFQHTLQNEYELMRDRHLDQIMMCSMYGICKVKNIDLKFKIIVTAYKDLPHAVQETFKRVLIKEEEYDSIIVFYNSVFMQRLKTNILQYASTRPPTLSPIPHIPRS

[4] = biological target: T4, Rb^P R451H (human, UniProt P06400 380-788, R451H)
T4 construct: also called variant 6
T4 sequence (looked up): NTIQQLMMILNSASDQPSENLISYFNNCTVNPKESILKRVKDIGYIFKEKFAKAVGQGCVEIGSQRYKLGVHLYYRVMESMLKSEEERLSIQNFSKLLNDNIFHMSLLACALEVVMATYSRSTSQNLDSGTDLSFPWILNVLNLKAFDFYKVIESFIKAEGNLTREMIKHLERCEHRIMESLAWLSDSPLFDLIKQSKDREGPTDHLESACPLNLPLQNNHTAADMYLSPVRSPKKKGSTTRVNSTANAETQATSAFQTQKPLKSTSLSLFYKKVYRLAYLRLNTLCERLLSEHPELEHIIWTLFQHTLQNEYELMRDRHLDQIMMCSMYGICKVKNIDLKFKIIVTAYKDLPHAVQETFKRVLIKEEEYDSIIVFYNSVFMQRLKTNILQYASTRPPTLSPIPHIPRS

[5] = biological target: T5, Rb^P H699P (human, UniProt P06400 380-788, H699P)
T5 construct: also called variant 63
T5 sequence (looked up): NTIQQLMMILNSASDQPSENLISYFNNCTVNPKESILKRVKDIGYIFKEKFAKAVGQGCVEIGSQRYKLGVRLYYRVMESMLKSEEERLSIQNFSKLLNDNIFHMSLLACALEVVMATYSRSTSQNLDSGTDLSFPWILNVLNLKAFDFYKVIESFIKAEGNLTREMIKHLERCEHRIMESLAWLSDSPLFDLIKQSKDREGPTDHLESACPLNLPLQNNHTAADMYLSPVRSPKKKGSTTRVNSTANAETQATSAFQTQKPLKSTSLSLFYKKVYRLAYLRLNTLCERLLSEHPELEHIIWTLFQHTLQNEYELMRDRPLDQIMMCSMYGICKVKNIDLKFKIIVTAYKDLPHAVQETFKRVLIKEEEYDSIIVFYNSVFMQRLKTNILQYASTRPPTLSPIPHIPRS

Binder	Kd [1]	Kd [2]	Kd [3]	Kd [4]	Kd [5]
{TMR}-GEGIRDLFDCDFGDLTPLD (also called E2F^TD; source: synthetic peptide, bought: GenScript) [TMR-E2F1^TD, peptide of the E2F1 transactivation domain]	129 nM	59 nM	48 nM	56 nM	68 nM
DLYCYEQLN (also: TMR label, position not given here, source: synthetic peptide, bought: GenScript) [TMR-E7^LxCxE, LxCxE peptide of the E7 oncoprotein from HPV]	51 nM	15 nM	13 nM	22 nM	14 nM
